What was measured:
[1] = biological target: T1, DENV2 sE strain FGA02, wild type (recombinant E ectodomain) (Dengue virus 2, strain FGA-02 …, strain); experiment: ELISA; capture ELISA: mAb coated at 5 μg ml^−1 on MAXISORP plates; serial dilutions of Strep-tagged sE in solution; ALP-labelled Strep-Tactin; settings: one partner purified
T1 construct: also called sE WT; DENV2 FGA02 WT

[2] = biological target: T1, DENV2 sE strain FGA02, wild type …; experiment: SEC-MALS; mixture of 150 μg DENV2 FGA02 sE with 300 μg Fab, Superdex 200 10/300 GL, run in a similar manner as sE alone; settings: both partners purified

Binder | binding result [1] | binding result [2]
anti-EDE2 mAb 747(4)B7, human IgG (antibody, V domains shown) VH: EVQLVESGGGLVQPGGSLKLSCAASGFTFSSHWMHWVRQAPGKGLVWVSRTNSDGSSTSYADSVKGRFMISRDNSKNTVYLHMNGLRAEDTAVYFCARDGVRYYYDSTGYYPDNFFQYGLDVWGQGTTVTVSS VL: QSALTQPASVSGSPGQSITISCTGISSDVETYNLVSWYEQHPGKAPKLIIYEASKRPSGVSNRFSGSKSGNTASLAISGLQAEDEADYYCCSYAGGKSLVFGGGTRLTVL | binds | 
anti-EDE2 mAb 747(4)A11, human IgG (antibody, V domains shown) VH: EVQLVESGGGLVRPGGSLRLSCAASGFSYSNHWMHWVRQAPGKGLVWVSRINSDGSTRNYADFVKGRFTISRDNAENTLYLEMNSLTADDTAVYYCVRDGVRFYYDSTGYYPDSFFKYGMDVWGQGTTVTVSS VL: QSVLTQPVSVSGSPGQSITISCTGTSSNADTYNLVSWYQQRPGKAPKLMIYEGTKRPSGVSNRFSASKSATAASLTISGLQPEDEADYYCCSYATSRTLVFGGGTKLTVV | binds | 
anti-EDE2 Fab A11 (Fab of human mAb 747(4)A11) (Fab, V domains shown) VH: EVQLVESGGGLVRPGGSLRLSCAASGFSYSNHWMHWVRQAPGKGLVWVSRINSDGSTRNYADFVKGRFTISRDNAENTLYLEMNSLTADDTAVYYCVRDGVRFYYDSTGYYPDSFFKYGMDVWGQGTTVTVSS VL: QSVLTQPVSVSGSPGQSITISCTGTSSNADTYNLVSWYQQRPGKAPKLMIYEGTKRPSGVSNRFSASKSATAASLTISGLQPEDEADYYCCSYATSRTLVFGGGTKLTVV |  | binds

Reference: PMC5457521 (Nature Communications, 2017)
